Test results from patent US20260201038A1 (CELLABMED, published 2026).
Each block holds one molecule with its values, some of them ahead of it.

What was measured:
[1] = target: B7-H3 on human cancer cells (human) (UniProt Q5ZPR3); experiment: cell-based or functional assay
[2] = target: T1, recombinant human 4Ig B7-H3 (human, UniProt Q5ZPR3 29-461, limits assumed); experiment: indirect ELISA, antigen coated at 1 ug/mL, anti-human Fc-HRP, absorbance at 450 nm
T1 construct: Bought recombinant protein (Sino Biological); also called 4lg B7-H3
T1 sequence: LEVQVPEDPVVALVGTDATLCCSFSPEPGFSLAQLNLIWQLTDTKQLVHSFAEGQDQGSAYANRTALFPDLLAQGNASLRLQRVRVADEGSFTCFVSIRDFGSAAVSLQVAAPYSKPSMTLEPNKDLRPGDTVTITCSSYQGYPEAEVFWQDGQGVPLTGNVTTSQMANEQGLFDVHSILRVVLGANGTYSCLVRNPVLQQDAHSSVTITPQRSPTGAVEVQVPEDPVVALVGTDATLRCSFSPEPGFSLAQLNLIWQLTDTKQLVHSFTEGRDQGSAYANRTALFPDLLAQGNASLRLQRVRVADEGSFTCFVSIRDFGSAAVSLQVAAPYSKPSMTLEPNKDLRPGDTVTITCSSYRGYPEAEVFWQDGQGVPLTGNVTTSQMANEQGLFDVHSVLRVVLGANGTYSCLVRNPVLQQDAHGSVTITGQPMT
Protocol: (§1) The binding ability of 2D IgG prepared in Example 2 for recombinant B7-H3 protein was investigated by indirect ELISA. For indirect ELISA, recombinant human 4lg B7-H3, recombinant human 2lg B7-H3 and recombinant mouse B7-H3 were diluted respectively to 1 μg/mL in 50 μL of PBS and adsorbed overnight onto a 96-well immunoplate (Corning, USA) by storing at 4° C. After reaction with a buffer solution containing 3% bovine serum albumin at room temperature for 1 hour, followed by washing 3 times with a buffer solution containing 0.5% Tween 20, each well was treated with 50 μL of the antibodies diluted serially (0.0001, 0.0003, 0.001, 0.003, 0.01, 0.03, 0.1, 0.3, 1, 3 and 10 nM). For antigen-antibody binding, the mixture was reacted at room temperature for 2 hours, and then washed 3 times with a buffer solution containing 0.5% Tween 20. After treating each well with 50 μL of anti-human immunoglobulin Fc-HRP antibodies (Jackson Immunoresearch, USA) diluted to 1:3,000, reaction was conducted at room temperature for 1 hour. […] As a result of measuring absorbance at 450 nm using a spectrophotometer (Biotek, USA), it was confirmed that 2D IgG binds to B7-H3, and the binding ability was in the order of 4lg B7-H3, 2lg B7-H3 and mouse B7-H3 (FIG. 2a).

[3] = target: T2, recombinant human 2Ig B7-H3 (human, UniProt Q5ZPR3 29-466); experiment: as above
T2 construct: Bought recombinant protein (R&D Systems); also called 2lg B7-H3
T2 sequence: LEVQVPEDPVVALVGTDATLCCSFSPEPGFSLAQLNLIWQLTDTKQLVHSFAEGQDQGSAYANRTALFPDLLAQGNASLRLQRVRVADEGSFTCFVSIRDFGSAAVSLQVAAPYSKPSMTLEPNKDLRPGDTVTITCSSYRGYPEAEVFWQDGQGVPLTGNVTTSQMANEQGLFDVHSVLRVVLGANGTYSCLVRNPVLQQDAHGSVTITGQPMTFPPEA
Protocol: as §1

[4] = target: T3, human 4Ig B7-H3 expressed on Raji cells (human) (UniProt Q5ZPR3); experiment: flow cytometry on Raji cells expressing 4Ig B7-H3; the vector control Raji cells show < 2%
T3 sequence: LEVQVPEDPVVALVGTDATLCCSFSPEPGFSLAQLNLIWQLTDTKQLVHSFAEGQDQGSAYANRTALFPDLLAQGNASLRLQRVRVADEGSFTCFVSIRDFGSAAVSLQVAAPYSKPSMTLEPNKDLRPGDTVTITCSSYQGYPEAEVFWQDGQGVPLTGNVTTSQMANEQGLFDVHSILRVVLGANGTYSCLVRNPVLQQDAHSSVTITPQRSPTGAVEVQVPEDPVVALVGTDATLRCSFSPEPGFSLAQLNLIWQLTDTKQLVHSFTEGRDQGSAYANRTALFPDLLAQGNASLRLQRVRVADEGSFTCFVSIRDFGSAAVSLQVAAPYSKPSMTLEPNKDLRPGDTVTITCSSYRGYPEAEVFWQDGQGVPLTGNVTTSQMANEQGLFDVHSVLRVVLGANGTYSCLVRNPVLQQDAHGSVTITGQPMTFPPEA

Molecule: enoblituzumab with wild-type Fc (antibody)
T cell-mediated A549 cell-killing effect (GFP fluorescence of A549 cells after 48 h co-culture with activated PBMCs; negative control group = 100) [1]: 77.3

EC50 (read off the curve) [2]: ~6 pM
EC50 (read off the curve) [3]: ~0.2 nM
B1: 2D IgG (antibody, V domains shown)
VH: AVTLDESGGGLQTPGGGLSLVCKASGFDFSSYPMVWVRQAPGKGLEYVASINSGGSWTGYGAAVKGRATISRDNGQSTVRLQLNNLRAEDTATYYCARAYGAATIDAWGHGTEVIVSS
VL: ALTQPSSVSANLGGTVKITCSGGSIGYGWYQQKAPGSAPVTVIYYNDRRPSDIPSRFSGSKSGSANTLTITGVQADDEAIYYCGSADSSSTYTGIFGAGTTLTVL
notes: Chicken/human chimeric complete antibody (full-length IgG); also called 2D complete antibody; parent antibody (2D)

% of cells in the positive gate (P3) [4]: > 70%
B2: enoblituzumab (antibody, part only; not given: Constant regions, V domains shown, not shown: another chain or arm of the molecule)
VH: EVQLVESGGGLVQPGGSLRLSCAASGFTFSSFGMHWVRQAPGKGLEWVAYISSDSSAIYYADTVKGRFTISRDNAKNSLYLQMNSLRDEDTAVYYCGRGRENIYYGSRLDYWGQGTTVTVSS
VL: DIQLTQSPSFLSASVGDRVTITCKASQNVDTNVAWYQQKPGKAPKALIYSASYRYSGVPSRFSGSGSGTDFTLTISSLQPEDFATYYCQQYNNYPFTFGQGTKLEIK
